The record followed here is US20040131591A1 (OXFORD BIOMEDICA UK, published 2004).

The target in the experiment is T1, human 5T4 (oncofetal glycoprotein 5T4, trophoblast cell surface antigen) (human, UniProt Q13641 32-420).
T1 construct: whole, on cells; also called h5T4; 5T4 antigen
T1 sequence (looked up): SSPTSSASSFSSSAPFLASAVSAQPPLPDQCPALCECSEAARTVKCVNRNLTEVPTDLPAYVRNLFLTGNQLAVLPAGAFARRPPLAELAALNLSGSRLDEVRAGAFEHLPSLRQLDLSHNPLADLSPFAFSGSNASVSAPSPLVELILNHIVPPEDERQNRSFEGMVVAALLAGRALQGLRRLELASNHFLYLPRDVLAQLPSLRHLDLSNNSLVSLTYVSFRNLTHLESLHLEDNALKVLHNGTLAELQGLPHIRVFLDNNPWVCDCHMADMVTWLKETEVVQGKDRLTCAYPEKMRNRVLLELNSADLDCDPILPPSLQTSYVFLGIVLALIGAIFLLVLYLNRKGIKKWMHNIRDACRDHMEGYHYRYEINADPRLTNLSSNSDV
In words: FACS: A9-h5T4 cells with B7.1/ScFv supernatant, then CTLA4-Ig, detected with FITC anti-mouse Ig. On the technique in general: A flow cytometer gives signals particle by particle.

Method: After washing cells were incubated with CTLA4-Ig (Ancell) for 1 hour. After washing, bound CTLA4-Ig was detected using an FITC conjugated anti-mouse Ig (Dako).

B1: B7-1/ScFv fusion protein (leader sequence and extracellular domain of murine B7.1 fused via a flexible linker to the VH and VL of the murine Mab 5T4 specific … (other)
chain: VDEQLSKSVKDKVLLPCRYNSPHEDESEDRIYWQKHDKVVLSVIAGKLKVWPEYKNRTLYDNTTYSLIILGLVLSDRGTYSCVVQKKERGTYEVKHLALVKLSIKADFSTPNITESGNPSADTKRITCFASGGFPKPRFSWLENGRELPGINTTISQDPESELYTISSQLDFNTTRNHTIKCLIKYGDAHVSEDFTWEKPPEDPPDSKPGGGGSGGGGSGGGGTSEVQLQQSGPDLVKPGASVKISCKASGYSFTGYYMHWVKQSHGKSLEWIGRINPNNGVTLYNQKFKDKAILTVDKSSTTAYMELRSLTSEDSAVYYCARSTMITNYVMDYWGQVTSVTVSSGGGGSGGGGTGGGGSSIVMTQTPTFLLVSAGDRVTITCKASQSVSNDVAWYQQKPGQSPTLLISYTSSRYAGVPDRFIGSGYGTDFTFTISTLQAEDLAVYFCQQDYNSPPTFGGGTKLEIKR
notes: Tested as about 30-fold concentrated supernatant of transiently transfected 293T cells; also called B7/ScFv; OBM 233
For B1, the binding result is given as “binds”.
